According to paper PMC6433461:

Target: ParB2^S68C-AlexaFluor488 (B. subtilis) (UniProt P26497)

B1: ParB2^S68C-AlexaFluor488 (natural protein)
chain: MAKGLGKGINALFNQVDLSEETVEEIKIADLRPNPYQPRKHFDDEALAELKESVLQHGILQPLIVRKCLKGYDIVAGERRFRAAKLAGLDTVPAIVRELSEALMREIALLENLQREDLSPLEEAQAYDSLLKHLDLTQEQLAKRLGKSRPHIANHLRLLTLPENIQQLIAEGTLSMGHGRTLLGLKNKNKLEPLVQKVIAEQLNVRQLEQLIQQLNQNVPRETKKKEPVKDAVLKERESYLQNYFGTTVNIKRQKKKGKIEIEFFSNEDLDRILELLSERES
modifications: Alexa Fluor 488 C5 maleimide coupled to the cysteine of S68C; approximate efficiency of 2 dyes per ParB monomer as printed
B1 gave a percentage of single DNA molecules condensed by 250 nM ParB^AF alone at permissive forces, Mg2+ buffer, combined lateral MT-TIRF of 83%.
